First the molecules themselves.
B1: Zinc finger homeobox protein 4, residues 2562 to 2617; numbered along this chain, Q86UP3 (parent)
chain: RLRTTITPEQLEILYEKYLLDSNPTRKMLDHIAREVGLKKRVVQVWFQNTRARERK

± gives the uncertainty stated by the source.

This series covers variants of B1. The series can be described thus: abundance fitness (aPCA) (normalised: wild type 0, dead -1); higher = more abundant; growth selection in yeast, the domain comes from the species named. Conditions: Homo sapiens.
Take RLRTTITPEQLEILYEKYLLDSNPTRKMLDHIAREIGLKKRVVQVWFQNTRARERK [V36I]: the abundance fitness was -0.398 ± 0.11.
To RLRTTITPEQLEILYEKYLLDSNPTRKMLDHIARESGLKKRVVQVWFQNTRARERK [V36S] belongs 0.019 ± 0.068; to RLRTTITPEQLEILYEKYLLDSNPTRKMLDHIAREVGLWKRVVQVWFQNTRARERK [K39W], -0.779 ± 0.17; to RLRTTITPEQLEILYEKYLLDSNPTRKMLDHIAREVGLKKRVVQVWFQNTRARENK [R55N], 0.297 ± 0.15.
To RIRTTITPEQLEILYEKYLLDSNPTRKMLDHIAREVGLKKRVVQVWFQNTRARERK [L2I] belongs -0.115 ± 0.14; to RLRTTITPEQLEILYEKYLLDSKPTRKMLDHIAREVGLKKRVVQVWFQNTRARERK [N23K], -0.054 ± 0.11.
In the case of RLRTTITPEQLEILYEKYLLDSDPTRKMLDHIAREVGLKKRVVQVWFQNTRARERK [N23D], the abundance fitness is -0.039 ± 0.14.
As for RLRTTITPEQLEILYEKYLLDSMPTRKMLDHIAREVGLKKRVVQVWFQNTRARERK [N23M], the figure is -0.105 ± 0.11; as for RLRTTITPEQLEILYEKYLLDSNPTRKMLDHIARWVGLKKRVVQVWFQNTRARERK [E35W], -0.597 ± 0.11.
Consider RLRTTITPEQLEILYEKYLLDSNPTRKMLDHIARCVGLKKRVVQVWFQNTRARERK [E35C], for which the abundance fitness is -0.393 ± 0.081.
With RLRTTITPETLEILYEKYLLDSNPTRKMLDHIAREVGLKKRVVQVWFQNTRARERK [Q10T], the abundance fitness is -0.587 ± 0.15.
Turning to RLRTTITPEQLEILYEKYLLDSNPTRKMLDHIAREVGLKKRVVQVWFQNTRARRRK [E54R], the abundance fitness was -0.615 ± 0.11.
To RLRTTITPEQLEILYEKYLLDSNPTRKMLDHIAREVGLKKRVVQVWFQNTRARYRK [E54Y] belongs -0.715 ± 0.29.
To RLRTTITPEQLEILYEKYLLDSNPTRKMLDHIAREVGLKKRMVQVWFQNTRARERK [V42M] belongs -0.103 ± 0.077; to RLRTTITPEQLEILYEKYLLDSNPTRKMLDHIEREVGLKKRVVQVWFQNTRARERK [A33E], -0.352 ± 0.21.
To RLRTTITPEQLEILYEKYLLDSNPTRKMLDHISREVGLKKRVVQVWFQNTRARERK [A33S] belongs -0.158 ± 0.18; to RLRTTITPEQLEILYEKYLLDSNPTRKMLDHICREVGLKKRVVQVWFQNTRARERK [A33C], -0.003 ± 0.36.
As for RLRTTITPEQLEILYEKYLLDSNPTRKMLDHIAREVGLKKRVVQVCFQNTRARERK [W46C], the abundance fitness is -0.663 ± 0.18.
Take RLRTTITDEQLEILYEKYLLDSNPTRKMLDHIAREVGLKKRVVQVWFQNTRARERK [P8D]: the abundance fitness was -0.107 ± 0.075.
To RLRTTITPEQLEILYEKYLLDSNPTRKMLDHIAREVGLKKRVVQLWFQNTRARERK [V45L] belongs -0.111 ± 0.056.
Regarding RLRTTITPEQLEILYEKYLLDSNPTRKMLDHIAREVGLKKRVVQWWFQNTRARERK [V45W], the abundance fitness is -0.439 ± 0.11.
Turning to RLRTTITPEQLEILYEKYLLDSNPTRKMLDHIAREVGLKKRVVQQWFQNTRARERK [V45Q], the abundance fitness is -0.568 ± 0.21.
In the case of RLRTTITPEQLEILYEKYLLDSNPTRKMLDHIAREVGLKKRVVQGWFQNTRARERK [V45G], the abundance fitness is -0.198 ± 0.083.
Consider RLRTTITPEQLEDLYEKYLLDSNPTRKMLDHIAREVGLKKRVVQVWFQNTRARERK [I13D], for which the abundance fitness was -0.535 ± 0.23.
As for RLRTTITPEQLENLYEKYLLDSNPTRKMLDHIAREVGLKKRVVQVWFQNTRARERK [I13N], the figure is -0.161 ± 0.24; as for RLRTTITPEQLEILYEKYLLDSNPTTKMLDHIAREVGLKKRVVQVWFQNTRARERK [R26T], 0.52 ± 0.12.
As for RLRTTITPEQLEILYEKYLLDSNPTKKMLDHIAREVGLKKRVVQVWFQNTRARERK [R26K], the abundance fitness was 0.1 ± 0.33.
As for RLRTTITPEQLEILYEKYLLDSNPTDKMLDHIAREVGLKKRVVQVWFQNTRARERK [R26D], the abundance fitness is 0.285 ± 0.12.
As for RLRTTITPEQLEILYEKYLLDSNPTPKMLDHIAREVGLKKRVVQVWFQNTRARERK [R26P], the figure is -0.236 ± 0.33.
Regarding RLRTTITPEQLEILYEKYLLDSNPTRKMSDHIAREVGLKKRVVQVWFQNTRARERK [L29S], the abundance fitness was -0.498 ± 0.066.
To RLRTTITPEQLHILYEKYLLDSNPTRKMLDHIAREVGLKKRVVQVWFQNTRARERK [E12H] belongs -0.307 ± 0.31.
As for RLRTTITPEQLFILYEKYLLDSNPTRKMLDHIAREVGLKKRVVQVWFQNTRARERK [E12F], the figure is 0.083 ± 0.12; as for RLRTTITPEQLEILYERYLLDSNPTRKMLDHIAREVGLKKRVVQVWFQNTRARERK [K17R], -0.258 ± 0.12; as for RLRTTITPEQLEILYEKYLLDSNPTRKILDHIAREVGLKKRVVQVWFQNTRARERK [M28I], -0.101 ± 0.15.
To RLRTTITPEQLEILYEKYLLDSNPTRKMLDHIAREVGLKKGVVQVWFQNTRARERK [R41G] belongs 0.264 ± 0.053; to RLRTTITPEQLEILYEKYKLDSNPTRKMLDHIAREVGLKKRVVQVWFQNTRARERK [L19K], -0.154 ± 0.12; to RLRTTITPEQLEILYEKYMLDSNPTRKMLDHIAREVGLKKRVVQVWFQNTRARERK [L19M], -0.131 ± 0.1.
Turning to RLRTTITPEQLEILYEKYPLDSNPTRKMLDHIAREVGLKKRVVQVWFQNTRARERK [L19P], the abundance fitness is -0.897 ± 0.29.
To RLRTTITPEQLEILYEKYLLDSNPHRKMLDHIAREVGLKKRVVQVWFQNTRARERK [T25H] belongs -0.596 ± 0.48.
To RLRTTITPEQLEILYEKYLLDSNPTRKMLDHIAREVGLKKRVVQVWNQNTRARERK [F47N] belongs -0.905 ± 0.22; to RLRTTITPEQLEILYEKYLLDSNPTRKMLDHIAAEVGLKKRVVQVWFQNTRARERK [R34A], 0.195 ± 0.073; to RLRTTITPEQLEILYEKYLLDSNPTRKMLDHIAEEVGLKKRVVQVWFQNTRARERK [R34E], 0.244 ± 0.054.
Turning to RLRTTITPEQLEILYEKYLLDSNPTRKMLDHIAIEVGLKKRVVQVWFQNTRARERK [R34I], the abundance fitness was -0.43 ± 0.22.
Regarding RLRTTITPEQLEILYEKYLLDSNPTRKMLDHIAGEVGLKKRVVQVWFQNTRARERK [R34G], the abundance fitness is 0.123 ± 0.051.
To RLRTTITPEQLEILYEKYLLDSNPTRKMLDHIAREVGLKKRVVQVWFQNTRDRERK [A52D] belongs 0.384 ± 0.056; to RLRTTITPEQLEILYEKYLLDSNPTRKMLDHIAREVGLKKRVVQVWFQNTRPRERK [A52P], -0.693 ± 0.15.
Consider RLQTTITPEQLEILYEKYLLDSNPTRKMLDHIAREVGLKKRVVQVWFQNTRARERK [R3Q], for which the abundance fitness came out at 0.424 ± 0.11.

(Values after the Human Domainome abundance scans (Beltran et al. 2025).)
